Assay results published in article PMC6415305 (Molecular cell, 2019).

Biological target: Recombinant His-tagged S6K1 T389E/S424D/S429D (S6K1*), in vitro translated (human, UniProt P23443-2 1-502, T389E | S424D | S429D)
Assay: SPR

Recombinant His-tagged S6K1 T389E/S424D/S429D (S6K1*), in vitro translated, sequence (P23443 24-525 T412E/S447D/S452D): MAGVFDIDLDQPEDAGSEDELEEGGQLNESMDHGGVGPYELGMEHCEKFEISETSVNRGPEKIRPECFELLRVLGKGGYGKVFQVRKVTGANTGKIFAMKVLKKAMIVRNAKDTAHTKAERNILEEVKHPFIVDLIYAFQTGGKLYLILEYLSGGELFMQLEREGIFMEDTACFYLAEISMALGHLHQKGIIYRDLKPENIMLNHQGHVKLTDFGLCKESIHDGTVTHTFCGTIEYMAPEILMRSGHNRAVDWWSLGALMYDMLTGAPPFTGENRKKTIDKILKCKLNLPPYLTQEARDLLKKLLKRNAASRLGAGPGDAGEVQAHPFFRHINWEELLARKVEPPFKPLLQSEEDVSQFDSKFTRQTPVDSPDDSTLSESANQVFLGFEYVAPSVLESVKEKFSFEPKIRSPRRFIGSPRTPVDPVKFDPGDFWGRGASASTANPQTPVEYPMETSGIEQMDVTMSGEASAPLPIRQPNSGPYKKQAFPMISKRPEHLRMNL

B1: EPRS linker (Pro683 to Asn1023 of human glutamyl-prolyl tRNA synthetase), His tag removed (domain or fragment, UniProt P07814 683-1023, looked up)
chain: PYEPVSPYSCKEAPCVLIYIPDGHTKEMPTSGSKEKTKVEATKNETSAPFKERPTPSLNNNCTTSEDSLVLYNRVAVQGDVVRELKAKKAPKEDVDAAVKQLLSLKAEYKEKTGQEYKPGNPPAEIGQNISSNSSASILESKSLYDEVAAQGEVVRKLKAEKSPKAKINEAVECLLSLKAQYKEKTGKEYIPGQPPLSQSSDSSPTRNSEPAGLETPEAKVLFDKVASQGEVVRKLKTEKAPKDQVDIAVQELLQLKAQYKSLIGVEYKPVSATGAEDKDKKKKEKENKSEKQNKPQKQNDGQRKDPSKNQGGGLSSSGAGEGQGPKKQTRLGLEAKKEEN
B1 gave a Kd of 56 nM.
